According to the supplement of paper PMC10126150:
± gives the standard deviation of the averaged measurements.

tested on: ATP; test: switch fluorescence ratio, 500 uM ATP over buffer (Cy3 cluster intensity, sum of 5 cycles each) (fold (ratio)); higher = stronger signal-on switching upon ATP binding; sequences stand for … in TCGTCGGCAGCGTCAGATGTGTATAAGAGACAGTTTTTTTTTTTTTTTTTTTTTTTTT…TC; conditions: aptamer strand: ATP DNA aptamer (quencher-CACCTGGGGGAGTATTGCGGAGGAAGG + anchor), 100 nM annealed; ATP concentration: 500 uM
In short: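 Imaging in selection buffer was followed by imaging after 15 min with 500 uM ATP at 22 °C, for Cy3-labelled switching-strand clusters annealed to 100 nM quencher-labelled ATP aptamer on a modified Illumina MiSeq flow-cell. Five of these buffer/ATP cycles ran, separated by NaOH stripping and re-annealing. The fluorescence ratio per cluster is summed target-cycle over summed buffer-cycle Cy3 intensity, averaged per switch-domain sequence; clusters outside 100-1000 RFU were removed.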
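Also: ATP exposure 15 min at 22 °C before imaging.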

Sequence | switch fluorescence ratio
TGGTTACTGT | 1.02 ± 0.022
TGGTTAGGGG | 1.06 ± 0.084
TGGTTAGTTT | 0.997 ± 0.016
TGGTTATATT | 1.02 ± 0.026
TGGTTCCCAG | 1.04 ± 0.031
TGGTTCGCTA | 1.02 ± 0.013
TGGTTCGGAA | 1.016 ± 0.0048
TGGTTCTAG | 0.989 ± 0.024
TGGTTCTTTT | 1.02 ± 0.056
TGGTTGACGA | 1.01 ± 0.14
TGGTTGCGGC | 0.986 ± 0.03
TGGTTGGGAT | 1 ± 0.04
TGGTTGGGGT | 1.01 ± 0.054
TGGTTGGT | 0.9755 ± 0.0095
TGGTTGTCCC | 1.01 ± 0.038
TGGTTGTTCC | 1.03 ± 0.025
TGGTTGTTTT | 0.99 ± 0.018
TGGTTTAAGG | 0.9844 ± 0.0088
TGGTTTAAGT | 0.987 ± 0.027
TGGTTTAATT | 1.01 ± 0.017
TGGTTTATAT | 1 ± 0.013
TGGTTTCCCA | 0.9738 ± 0.0042
TGGTTTGCGC | 1.36 ± 0.46
TGGTTTGGGC | 0.984 ± 0.034
TGGTTTGTAT | 1 ± 0.029

Sequence | switch fluorescence ratio
TGGTTTGTGG | 0.974 ± 0.037
TGGTTTTAGC | 0.9886 ± 0.0028
TGGTTTTCGT | 1.01 ± 0.028
TGGTTTTGTG | 0.9862 ± 0.0015
TGGTTTTTGC | 0.961 ± 0.057
TGGTTTTTTA | 0.993 ± 0.025
TGTAAAAGGT | 1.04 ± 0.092
TGTAAAGGCG | 0.953 ± 0.039
TGTAAAGGGA | 0.998 ± 0.024
TGTAACCTTT | 1.04 ± 0.018
TGTAAGCCTT | 1.03 ± 0.079
TGTAAGCTGG | 1.03 ± 0.073
TGTAAGGGAC | 1.07 ± 0.034
TGTAAGGGGT | 1.06 ± 0.085
TGTAAGTCTT | 0.966 ± 0.032
TGTAAGTGCG | 0.9833 ± 0.0063
TGTAATGCCC | 0.991 ± 0.02
TGTACGTAG | 1.01 ± 0.012
TGTACTAGGA | 0.968 ± 0.018
TGTACTGGGG | 1.003 ± 0.0094
TGTAGCAGCG | 1.1 ± 0.16
TGTAGCATCT | 1.081 ± 0.0096
TGTAGGGGTA | 0.98 ± 0.045
TGTAGGGGTT | 1 ± 0.044
TGTAGTACCG | 1.021 ± 0.0056

Sequence | switch fluorescence ratio
TGTAGTACTT | 1.02 ± 0.016
TGTAGTTGGT | 1.014 ± 0.0096
TGTAGTTTGA | 1 ± 0.012
TGTATACTTT | 1.018 ± 0.0081
TGTATAGGGT | 1.01 ± 0.048
TGTATATGG | 0.958 ± 0.016
TGTATTGGTT | 0.99 ± 0.034
TGTATTTTGT | 0.976 ± 0.022
TGTCAAAGAT | 0.9772 ± 0.0044
TGTCACAGTT | 1.01 ± 0.013
TGTCAGGGCA | 1.02 ± 0.064
TGTCAGTGCG | 0.97 ± 0.042
TGTCATAATG | 0.97 ± 0.015
TGTCGAAAGA | 0.999 ± 0.013
TGTCGACTGT | 0.987 ± 0.042
TGTCGGAGGT | 1.02 ± 0.05
TGTCGGGGAG | 1.01 ± 0.018
TGTCGGGGGG | 1.01 ± 0.028
TGTCGGTCGG | 0.984 ± 0.015
TGTCGTCTGT | 0.9932 ± 0.0063
TGTCTATAGT | 0.986 ± 0.036
TGTCTATCGG | 0.974 ± 0.014
TGTCTCGCCC | 1.02 ± 0.024
TGTCTCTGTC | 1.01 ± 0.021
TGTCTGAGGG | 1 ± 0.013

Sequence | switch fluorescence ratio
TGTCTGCAGC | 1.022 ± 0.0085
TGTCTGCTTT | 0.997 ± 0.043
TGTCTTTTTT | 1.01 ± 0.029
TGTGAAAAAG | 0.976 ± 0.053
TGTGAACTTT | 1.01 ± 0.012
TGTGAAGGGC | 1.02 ± 0.029
TGTGAATGGT | 0.985 ± 0.015
TGTGAGGCTT | 1.03 ± 0.015
TGTGAGGGCG | 1.06 ± 0.015
TGTGATAGGG | 0.978 ± 0.06
TGTGATAGGT | 1 ± 0.028
TGTGATGGAG | 0.979 ± 0.033
TGTGATGGGT | 0.996 ± 0.04
TGTGATTTCG | 0.945 ± 0.048
TGTGCGGGGT | 0.974 ± 0.012
TGTGCTAAGT | 0.985 ± 0.026
TGTGCTTTGT | 1 ± 0.016
TGTGGCAACG | 0.974 ± 0.032
TGTGGCCAGG | 1.04 ± 0.056
TGTGGCGACG | 0.957 ± 0.012
TGTGGCTAGG | 1.02 ± 0.029
TGTGGCTTAA | 0.9668 ± 0.0021
TGTGGGAGCT | 1.04 ± 0.07
TGTGGGAGGT | 0.9573 ± 0.0065
TGTGGGATTG | 0.993 ± 0.015
